# Measured values from patent publication US20200190507A1, “Encoded Solid Phase Compound Library with Polynucleotide Based Barcoding” (The Scripps Research Institute, priority 2016, published 2020).
# Entries after “also recorded” stand apart in the source; their conditions may differ.
# System: ATB serum IgGs
# Assay: Antigen competition binding analysis with beads displaying 2-B
# Set-up: species or system human
# Settings: for competition with 2-B for binding ATB serum IgGs: pooled ATB serum, beads displaying 2-B, CFP 250 μg/mL
Molecule,competition with 2-B for binding ATB serum IgGs,ATB IgG binding of Ag85B relative to Ag85A (competition titration with 2-B beads) [fold]
"recombinant Ag85B: Mycobacterium tuberculosis recombinant protein reference standard Ag85B, expressed in E. coli (protein) FSRPGLPVEYLQVPSPSMGRDIKVQFQSGGNNSPAVYLLDGLRAQDDYNGWDINTPAFEWYYQSGLSIVMPVGGQSSFYSDWYSPACGKAGCQTYKWETFLTSELPQWLSANRAVKPTGSAAIGLSMAGSSAMILAAYHPQQFIYAGSLSALLDPSQGMGPSLIGLAMGDAGGYKAADMWGPSSDPAWERNDPTQQIPKLVANNTRLWVYCGNGTPNELGGANIPAEFLENFVRSSNLKFQDAYNAAGGHNAVFNFPPNGTHSWEYWGAQLNAMKGDLQSSLGAG",no binding competition; also recorded: unreactive; also recorded: did not compete,
"Ag85B: Mycobacterium tuberculosis purified native protein Ag85B (Gene Rv1886c), Strain H37Rv (protein) FSRPGLPVEYLQVPSPSMGRDIKVQFQSGGNNSPAVYLLDGLRAQDDYNGWDINTPAFEWYYQSGLSIVMPVGGQSSFYSDWYSPACGKAGCQTYKWETFLTSELPQWLSANRAVKPTGSAAIGLSMAGSSAMILAAYHPQQFIYAGSLSALLDPSQGMGPSLIGLAMGDAGGYKAADMWGPSSDPAWERNDPTQQIPKLVANNTRLWVYCGNGTPNELGGANIPAEFLENFVRSSNLKFQDAYNAAGGHNAVFNFPPNGTHSWEYWGAQLNAMKGDLQSSLGAG",compete strongly,~10
